The source of these data is US20120100141A1 (GlaxoSmithKline, published 2012).

The labels stand for the following.
B5: Rat serum albumin (RSA) (other, UniProt P02770 25-608, looked up)
chain: EAHKSEIAHRFKDLGEQHFKGLVLIAFSQYLQKCPYEEHIKLVQEVTDFAKTCVADENAENCDKSIHTLFGDKLCAIPKLRDNYGELADCCAKQEPERNECFLQHKDDNPNLPPFQRPEAEAMCTSFQENPTSFLGHYLHEVARRHPYFYAPELLYYAEKYNEVLTQCCTESDKAACLTPKLDAVKEKALVAAVRQRMKCSSMQRFGERAFKAWAVARMSQRFPNAEFAEITKLATDVTKINKECCHGDLLECADDRAELAKYMCENQATISSKLQACCDKPVLQKSQCLAEIEHDNIPADLPSIAADFVEDKEVCKNYAEAKDVFLGTFLYEYSRRHPDYSVSLLLRLAKKYEATLEKCCAEGDPPACYGTVLAEFQPLVEEPKNLVKTNCELYEKLGEYGFQNAVLVRYTQKAPQVSTPTLVEAARNLGRVGTKCCTLPEAQRLPCVEDYLSAILNRLCVLHEKTPVSEKVTKCCSGSLVERRPCFSALTVDETYVPKEFKAETFTFHSDICTLPDKEKQIKKQTALAELVKHKPKATEDQLKTVMGDFAQFVDKCCKAADKDNCFATEGPNLVARSKEALA

In test [1] the target is Mouse serum albumin (MSA) (mouse, UniProt P07724 25-608). As to the kind of experiment: SPR (Biacore), albumin on CM5 chip, fusion in flow.
Experimental: (§1) The analysis was performed using a CM5 Biacore chip (carboxymethylated dextran matrix) that was coated with serum albumin. About 1000 resonance units (RUs) of each serum albumin to be tested (human, rat and mouse serum albumin) was immobilised in acetate buffer pH 5.5. […] Each fusion molecule tested was expressed in mammalian tissue culture as described in the example above.
(§2) Affinity (KD) was calculated from the BIACORE traces by fitting on-rate and off-rate curves to traces generated by concentrations of dAb in the region of the KD.
The test “Rat serum albumin (RSA)” addresses B5. Put plainly: SPR (Biacore), albumin on CM5 chip, fusion in flow. (In general: Surface plasmon resonance follows binding to a sensor surface in real time, without labels.)
Experimental: as §1, §2
For test [2], the target named is Human serum albumin (HSA) (human, UniProt P02768 25-609). As to the kind of experiment: SPR (Biacore), albumin on CM5 chip, fusion in flow.
Experimental: as §1, §2
The target of test [3] is T1, Exendin 4 (G4S linker)3 DOM7h-14 dAb fusion (DAT0115).
T1 construct: also called Exendin 4 (G4S)3 DOM7h-14 fusion
As to the kind of experiment: SPR (Biacore), biotinylated albumin on SA chip, fusion in flow.
Experimental: The analysis was performed using a streptavidin chip (SA) coated with biotinylated serum albumin. 200-1000 resonance units (RUs) of each serum albumin was immobilised on the chip. Flow cell 1 was uncoated, flow cell 2 was coated with HSA, flow cell 3 was coated with RSA and flow cell 4 was coated with CSA.
as §2

Test [4] addresses T2, Exendin 4, (G4S)3, linker DOM7h-14-10 fusion (DMS7139).
T2 construct: expressed in E. coli with a cleaved OmpT AWA leader; also called DSM7139
As to the kind of experiment: SPR (Biacore), albumin on CM5 chip, fusion in flow.
Experimental: (§3) The analysis was performed using two CM5 chips (carboxymethylated dextran matrix) that were coated with serum albumin. ˜500 resonance units (RUs) of each serum albumin was immobilised in acetate buffer pH 4.5. The first chip had flow cell 1 uncoated and blocked and flow cell 2 was coated with MSA (560Rus). The second chip had flow cell 1 uncoated and blocked, flow cell 2 was coated with HSA, flow cell 3 was coated with CSA and flow cell 4 was coated with RSA. For all serum albumins, the aim was to coat in the region of 350 RUs of protein onto the chip.
as §2

For test [5], the target named is T3, Exendin 4, (G4S)3, linker DOM7h-11-15 fusion (DMS7143).
T3 construct: expressed in E. coli with a cleaved OmpT AWA leader
As to the kind of experiment: SPR (Biacore), albumin on CM5 chip, fusion in flow.
Experimental: as §3, §2

Test [6] has as its target T2, Exendin 4, (G4S)3, linker DOM7h-14-10 …. Put plainly: melanophore functional GLP-1R bioassay.
In test [7] the target is T4, Exendin 4, helical linker, DOM7h-14 dAb fusion (DAT0117).
T4 construct: also called Exendin 4, helical linker, DOM7h-14 fusion
As to the kind of experiment: 6CRE-luciferase reporter in CHO cells with human GLP-1R (called GLP-1R binding assay).

Test [8] deals with T1, Exendin 4 (G4S linker)3 DOM7h-14 dAb …. The test is described as above.
The target of test [9] is T5, Exendin 4-DOM7h-14 dAb fusion (DAT0116).
T5 construct: also called Exendin 4 DOM7h-14 fusion
Described as above.

Mouse serum albumin (MSA), sequence (P07724 25-608 limits assumed): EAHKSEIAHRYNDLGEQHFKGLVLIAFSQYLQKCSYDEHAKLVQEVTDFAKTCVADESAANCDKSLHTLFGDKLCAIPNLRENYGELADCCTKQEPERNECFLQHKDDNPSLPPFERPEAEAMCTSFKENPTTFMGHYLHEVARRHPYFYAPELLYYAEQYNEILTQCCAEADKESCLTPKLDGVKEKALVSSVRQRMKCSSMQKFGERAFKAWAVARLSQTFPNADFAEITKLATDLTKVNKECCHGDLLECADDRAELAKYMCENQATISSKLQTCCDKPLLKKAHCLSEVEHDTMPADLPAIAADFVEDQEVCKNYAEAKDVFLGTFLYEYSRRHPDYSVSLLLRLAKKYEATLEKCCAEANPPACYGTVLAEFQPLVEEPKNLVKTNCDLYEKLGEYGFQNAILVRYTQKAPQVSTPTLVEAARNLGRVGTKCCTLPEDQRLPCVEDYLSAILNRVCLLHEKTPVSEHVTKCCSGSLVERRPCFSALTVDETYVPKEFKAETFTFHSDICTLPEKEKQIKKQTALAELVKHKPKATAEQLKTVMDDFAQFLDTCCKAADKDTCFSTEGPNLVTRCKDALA

B1: 2xGLP-1 (7-37) A8G DOM7h-14 dAb fusion (DAT0114) (other)
chain: HGEGTFTSDVSSYLEGQAAKEFIAWLVKGRHGEGTFTSDVSSYLEGQAAKEFIAWLVKGRDIQMTQSPSSLSASVGDRVTITCRASQWIGSQLSWYQQKPGKAPKLLIMWRSSLQSGVPSRFSGSGSGTDFTLTISSLQPEDFATYYCAQGAALPRTFGQGTKVEIKR
notes: expressed in HEK293E cells, purified on protein L; also called 2xGLP-1 (7-37) A8G DOM7h-14 fusion
The Kd is the concentration at which binding is half-saturated. Read a low Kd as a tighter complex. As to B1, the figures for the Kd (in [1]; in the test with Rat serum albumin (RSA); in [2]) were 130 nM, 700 nM and 150 nM, respectively.

B2: GLP-1 (7-37) A8G, helical linker, DOM7h-14 dAb fusion (DAT0120) (other)
chain: HGEGTFTSDVSSYLEGQAAKEFIAWLVKGRGKEAAAKEAAAKEAAAKELAAKEAAAKEAAAKEAAAKELAADIQMTQSPSSLSASVGDRVTITCRASQWIGSQLSWYQQKPGKAPKLLIMWRSSLQSGVPSRFSGSGSGTDFTLTISSLQPEDFATYYCAQGAALPRTFGQGTKVEIKR
notes: Single-chain genetic fusion of GLP-1 (7-37) A8G, helical linker and DOM7h-14; also called GLP-1 (7-37) A8G, helical linker, DOM7h-14 fusion; GLP-1 A8G, helical linker, DOM7h-14 fusion
For the molecule B2, the Kd in test [1] was determined as 110 nM; with Rat serum albumin (RSA), 800 nM; in test [2], 110 nM.

B3: Cynomolgus monkey serum albumin (CSA) (other, UniProt A2V9Z4 25-608, looked up)
chain: DTHKSEVAHRFKDLGEEHFKGLVLVAFSQYLQQCPFEEHVKLVNEVTEFAKTCVADESAENCDKSLHTLFGDKLCTVATLRETYGEMADCCAKQEPERNECFLQHKDDNPNLPPLVRPEVDVMCTAFHDNEATFLKKYLYEVARRHPYFYAPELLFFAARYKAAFAECCQAADKAACLLPKLDELRDEGKASSAKQRLKCASLQKFGDRAFKAWAVARLSQKFPKAEFAEVSKLVTDLTKVHTECCHGDLLECADDRADLAKYMCENQDSISSKLKECCDKPLLEKSHCLAEVENDEMPADLPSLAADYVESKDVCKNYAEAKDVFLGMFLYEYARRHPDYSVMLLLRLAKAYEATLEKCCAAADPHECYAKVFDEFQPLVEEPQNLVKQNCELFEQLGEYKFQNALLVRYTKKVPQVSTPTLVEVSRNLGKVGAKCCKLPEAKRMPCAEDYLSVVLNRLCVLHEKTPVSEKVTKCCTESLVNRRPCFSALELDEAYVPKAFNAETFTFHADMCTLSEKEKQVKKQTALVELVKHKPKATKEQLKGVMDNFAAFVEKCCKADDKEACFAEEGPKFVAASQAALA
notes: CSA is not spelled out where it is used; also called cynomolgus serum albumin; cyno serum albumin
For the molecule B3, the Kd in test [3] turned out to be 2000 nM; in test [4] it was 42.3 nM; in [5], 38.9 nM.

B4: Rat GLP-1 receptor (receptor, UniProt P32301 22-463, looked up)
chain: GPRPQGATVSLSETVQKWREYRHQCQRFLTEAPLLATGLFCNRTFDDYACWPDGPPGSFVNVSCPWYLPWASSVLQGHVYRFCTAEGIWLHKDNSSLPWRDLSECEESKQGERNSPEEQLLSLYIIYTVGYALSFSALVIASAILVSFRHLHCTRNYIHLNLFASFILRALSVFIKDAALKWMYSTAAQQHQWDGLLSYQDSLGCRLVFLLMQYCVAANYYWLLVEGVYLYTLLAFSVFSEQRIFKLYLSIGWGVPLLFVIPWGIVKYLYEDEGCWTRNSNMNYWLIIRLPILFAIGVNFLVFIRVICIVIAKLKANLMCKTDIKCRLAKSTLTLIPLLGTHEVIFAFVMDEHARGTLRFVKLFTELSFTSFQGFMVAVLYCFVNNEVQMEFRKSWERWRLERLNIQRDSSMKPLKCPTSSVSSGATVGSSVYAATCQNSCS
notes: whole, on cells
Consider B4, for which, in [6], the binding result is on record as “binds”.

For B5, the Kd is 2000 nM in [3], 31.5 nM in test [4] and 219 nM in test [5].

B6: Mouse GLP-1 receptor (receptor, UniProt O35659 22-463, looked up)
chain: GPRPQGTTVSLSETVQKWREYRRQCQRFLTEAPLLATGLFCNRTFDDYACWPDGPPGSFVNVSCPWYLPWASSVLQGHVYRFCTAEGLWLHKDNSSLPWRDLSECEESKRGERNFPEEQLLSLYIIYTVGYALSFSALVIASAILVGFRHLHCTRNYIHLNLFASFILRALSVFIKDAALKWMYSTAAQQHQWDGLLSYQDSLGCRLVFLLMQYCVAANYYWLLVEGVYLYTLLAFSVFSEQRIFKLYLSIGWGVPLLFVIPWGIVKYLYEDEGCWTRNSNMNYWLIIRLPILFAIGVNFLIFIRVICIVVSKLKANLMCKTDIKCRLAKSTLTLIPLLGTHEVIFAFVMDEHARGTLRFIKLFTELSFTSFQGLMVAILYCFVNNEVQMEFRKCWERWRLEHLNIQRDCSMKPLKCPTSSVSSGATVGSSVYAATCQSSYS
notes: whole, on cells
With B6, in test [6], the binding result is given as “binds”.

B7: Human GLP-1 receptor (receptor, UniProt P43220 24-463, looked up)
chain: RPQGATVSLWETVQKWREYRRQCQRSLTEDPPPATDLFCNRTFDEYACWPDGEPGSFVNVSCPWYLPWASSVPQGHVYRFCTAEGLWLQKDNSSLPWRDLSECEESKRGERSSPEEQLLFLYIIYTVGYALSFSALVIASAILLGFRHLHCTRNYIHLNLFASFILRALSVFIKDAALKWMYSTAAQQHQWDGLLSYQDSLSCRLVFLLMQYCVAANYYWLLVEGVYLYTLLAFSVLSEQWIFRLYVSIGWGVPLLFVVPWGIVKYLYEDEGCWTRNSNMNYWLIIRLPILFAIGVNFLIFVRVICIVVSKLKANLMCKTDIKCRLAKSTLTLIPLLGTHEVIFAFVMDEHARGTLRFIKLFTELSFTSFQGLMVAILYCFVNNEVQLEFRKSWERWRLEHLHIQRDSSMKPLKCPTSSLSSGATAGSSMYTATCQASCS
notes: whole, on cells
As to B7, the binding result in [7], in test [8], in test [9] and in [6] was “binds” throughout.
